This note sets out measurements from article PMC5612032.

This test deals with Amyloid-β peptide Aβ(1-42). The test is described as follows: NMR titration; 5 μM soluble pEAβ(3-42), 5% Aβ(1-42) fibrils added directly; decrease of the NMR signal of soluble pEAβ(3-42) within ca. 10 min; 10 mM sodium phosphate pH 7.4, 37 °C.

Regarding “Pyroglutamate-modified amyloid-β pEAβ(3-42) (peptide)”, the decrease in NMR signal intensity of soluble pEAβ(3-42) was found to be 50% and the stoichiometry N (pEAβ(3-42) : Aβ(1-42) in fibrils) was determined as 10.
